Data as given in the nanobody polyreactivity screen of Harvey et al. (2022).

Assay: yeast display, Sf9 membrane polyspecificity reagent, FACS + sequencing; frameworks hold sequencing errors
In short: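 After 36–48 hours of galactose induction, yeast (Saccharomyces cerevisiae BJ5465) displaying a synthetic nanobody library were stained at 4 °C for 1 hour with 10% biotinylated, detergent-solubilized Sf9 membrane reagent. Streptavidin microbeads enriched the stained cells before FACS sorting into low and high (top ~1%) gates on anti-HA and streptavidin fluorescence. Each clone's polyreactivity label reflects its gate of origin.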

Row | Sequence | polyreactivity (PSR sort gate)
1 | QVQLVESGGGLLQAGGSLSLSSAASGITCDLYDMGWYRQAPGKERELVAAITDAHSTYYADSVKGRFTNSRDYAKNTVYLQMNSLKPEDTAVYYCAADWYLYLDDKYDYWGQGTQVTVSS | low polyreactivity
2 | QVQLVESGGGLLRAGGSLRLICADSAFVNYVMGWYRQAPGKERELVAAISKGGGRTYYADSVKGRFTISRDNAKNTVYLQMNSLKPEVTAVYYCNADGGLPKYDYWGQGTQVTVSS | high polyreactivity
3 | QVQLVESGGGLVEAGGSLRLICAASGFIFLSNGMGWYRQGPGKERELVAAISSSGGSTYYADSVKGRFTISRDNAKNTVYLQMNSLKPEDTAVYYCAAEQYSVYETGSYDYWGQGTQVTVSS | low polyreactivity
4 | QVQLVESGGGLVEAGGSLRLSCAASGGIFKIYSMGWYIQAPGKERELVAGINWSDTGTYYADSVKGRFTISRDNAKNTVYLQMNSLKPEDTAVYYCAVSGYPVYITYVSYDYDYWGQGTQVNVSS | low polyreactivity
5 | QVQLVESGGGLVEAGGSLRLSCAASGGTFKLYAMGWYRPAPGKERELVAAISRRGGSTYYADSVKGRFTISRDNAKNTVYLQMNSLKPDDTALSNCAAPGPTQSTQRGGYWGQGTQVTVSS | high polyreactivity
6 | QVQLVESGGGLVEAGGSLRLSCAASGGTFLRYAMGWSIQAPGKERELVAAITYRNGRTYYADSVKGRFTISRDNAKNTVYLQMNSLKPEDTAVYYCAADSTPRGNPAYDYYYWGQGTQVTVSS | high polyreactivity
7 | QVQLVESGGGLVEAGGSLRLSCAASGRIFGRNAMGWYRQAPGKERELVAGISSGGTTDYADSVKGRFTISRDNAKNTVYLQMNSLKPEDTAVYYCNVGYAYDDQTYYLGESDYWGQGTQVTVSS | low polyreactivity
8 | QVQLVESGGGLVEAGGSLRLSCAASGRIFRYNAMGWYRQAPGKEWELVAAITASGGRTYYADSVKGRFTISRDNAKNTVYLQMNSLKPDDTAVYYCAATAFDKLKVWYSYWRQGTQVTVSS | high polyreactivity
9 | QVQLVESGGGLVEAGGSLRLSCAASGRIFTYYAMGWYRQAPGKERELVASISRSGGNTYYADSVKGRFTISRDNAKNTVYLQMNSLKPEDTAVYYCDAVYSRLDYWGQGTQVTVSS | high polyreactivity
10 | QVQLVESGGGLVEAGGSLRLSCAASGRTFDYNAMGWYRQAPGKERELVAAISRGGSTYYADSVKGRFTISRDNPNNSVYLQMNSLKPEDTAVYYCAALYVRVGYDYWGQGTQVTVSS | high polyreactivity
11 | QVQLVESGGGLVEAGGSLRLSCAASGRTFRYYAMGWYRQAPGKVREFVAAISTSGGRTYYADSVKGRFTISRDNAKNTVYLQMNSLKPEDTAVYYCAAVSAPRFGMDYLGQGTQVTVSS | high polyreactivity
12 | QVQLVESGGGLVEAGGSLRLSCAASGSIFARYAMGWTRQAPGKERELVAAITSRGGSTYADSVKGRFTISRDNAKNTVFLQMISLIPEDTAVYYCAAATLWYYRYWTSYDYWGQGTQVTVSS | high polyreactivity
13 | QVQLVESGGGLVEAGGSLRLSCAASGSTFGVNAMGWSRQAPGKERELVAVITRSGGSTYYADSVKGRFTISRDNAKNTVYLQMNSLKPEDTAVYYCAKSGVVDWGQGTQVTVSS | low polyreactivity
14 | QVQLVESGGGLVHAGASLRLSCAASGLTFRKYAKGWYRQAPGKERELVAAITGSGGRTYYADSVKGRFTISRDNAKNTVYLQMNSLQPEDTAVYYCAADDYFHDDYWGQGTQVTVSS | high polyreactivity
15 | QVQLVESGGGLVHAGCSLPLTCAASGSTLDANAMGSYRQAPGKEMELVAAISSGGITYYADSVKGRFTFSRDNAKSTVYLQMNCLKPEDTAGYYCANRGQGFQFGRDYWGQGTQVTVSS | low polyreactivity
16 | QVQLVESGGGLVHAGGRLRLSCAASGRTLAPYAMGWYRQAPGKERELVADIDRGGGSTYYADSVTGRFTISRDNAKNTVYLQMNSVKPEDTAVYYCYVDETGVLVAYTFDYWGQGTQVTVSS | low polyreactivity
17 | QVQLVESGGGLVHAGGRLRLSCDASGSLFFWNTMGWYRQAPGKQRQLVAAITVSGGRTYYADSVKGRFTISRDNAKNSFYLQMYSLKPEDTAVYYCAADPYRLYGYASYTYWGQGTQVTVSS | high polyreactivity
18 | QVQLVESGGGLVHAGGSHRLSCAASGLIFRRNPMGWYRQAPGKERELVAAISRTGGSTYYADSVKGSFTISRDNAKNTFYLQMNSMKPEYTAVYYCASDNRDYDYTYEYWGQGTQVTVSS | low polyreactivity
19 | QVQLVESGGGLVHAGGSLGLICAASGFIFYRYAMGWYRQAPGKERELVAAISWSGGTTYYADSVKGRFSISRDNAKNTVYLQMNSLKPEDTAVYYCAATRLRTEYYWGHGTQVTVSS | high polyreactivity
20 | QVQLVESGGGLVHAGGSLLLSCSASRSIFDLYAMGGYRQAPGKERELVADISIADSTNYADSVKGRFTISRDNAKNTVYLKMNSLKPEDTAVYYCKDDVWWYCYEYDYWGQGTEVTVSS | low polyreactivity
21 | QVQLVESGGGLVHAGGSLPLSCAASGRIFPGYAMRWYRQAPGKEREFVAAIRGTGTSTYYADSVKGRFTISRDNAKNTVYLQMNSLKPEDTAVYYCAASAGYAYNYWGQGTQVTVSS | low polyreactivity
22 | QVQLVESGGGLVHAGGSLRLSCAASGFIFWRYAMGWYRQAPGKERELVATITSSGGTTHYADSVKGRFTISRDNAKNTVYLQMNSLKPEDTAVFYCATRNGVGSLFYSRNYWGQGTQVSVSS | high polyreactivity

Row | Sequence | polyreactivity (PSR sort gate)
23 | QVQLVESGGGLVHAGGSLRLSCAASGFTFFKYAKGWYRQAPGKERELVATISIDGITNYADSVKGRFTISRHNAKNTVYLQMNSLKPEDTAVYYCHARSLYQQLGYWGQGTQVTVSS | low polyreactivity
24 | QVQLVESGGGLVHAGGSLRLSCAASGFTFSYNARGWYRQAPGKERELVASITRSGGRTYYADSVKGRFTISRDNAKNTVYLQMNSLKPEDTGVYYCAAVWYPWLSSIFDYWGQGTQVTVSS | high polyreactivity
25 | QVQLVESGGGLVHAGGSLRLSCAASGFTFYKNAMGWYRQAPGKERELVAAISADGGRTYYADSVKGRFTISRDNAKNTVYLQMNSLKPEDTGVYYCNARARRYTRLRWYAYVSDNDYWGQGTQVTVSS | high polyreactivity
26 | QVQLVESGGGLVHAGGSLRLSCAASGFTSYENAMGWYRQAPGKEREFVAAISYIAGNTYYSDSVKGRFTISRDNAKNTVYLQMNSLKPEDTAVYYCAKTKYILPGNAYVNYDTTAYDYWGQGTQVTVSS | low polyreactivity
27 | QVQLVESGGGLVHAGGSLRLSCAASGIILDYNAMGWYRQAPGKERELVAAITWSGSSTFYADTVKGRYTISHDNSKNTVYLQMNSLKPEDTAVYYCNADYFWGTYANFDYWGQCTQVTVSS | low polyreactivity
28 | QVQLVESGGGLVHAGGSLRLSCAASGITFSRNTMGWYRQAPGKERELVAAITLRGGGRTYYADSVKGRFTISRDNAKNTVYLQMISLKPEDTAVYYCAARYLVTFGHQQRYFYWGQGTHVTVSS | high polyreactivity
29 | QVQLVESGGGLVHAGGSLRLSCAASGITFYLYTMGWYRQAPGKERELVATITSGASTSYADSVKGRFTISRDNAKNTFYLQMNSLNPEDTAVYYCAARRTRVTGRYSVYAFDYWGQGTQVTVSS | low polyreactivity
30 | QVQLVESGGGLVHAGGSLRLSCAASGLIFPRYAMGSYRQAPGKERELVAAISRSGGNTYYADSVKGRFTISRDNAKNTVYLQMNSLKPEDTAVYYCAAYFSTAPKSQYKLDYWGQGTQVTVSS | high polyreactivity
31 | QVQLVESGGGLVHAGGSLRLSCAASGLIFYDNMGWYRQAPGKERELVAAISSSGGSTSYADSVKGRFTISRDNAKNTVYLQMNSLKPEDTAVYYCAAVSGPFVQTSGNGEYDYWGQGTQVTVSS | low polyreactivity
32 | QVQLVESGGGLVHAGGSLRLSCAASGLTFVNYAMGWYRQAPGKERELVATISKTGGSTYYADSVKGRFTISRDNAKNTVFLQMNSLKPEDTAVYYCAVDAYYYKWYDYWGQGTQVSVSS | high polyreactivity
33 | QVQLVESGGGLVHAGGSLRLSCAASGNIFRYNAMGWYRQAPGKERELVAAISSVGTTNYADSVKGRFTISRDNAKNTVYLQMNSLKPEDSAVYYCAAVAFQGGYWYDYWGQGTQVTVSS | low polyreactivity
34 | QVQLVESGGGLVHAGGSLRLSCAASGNIITYNAMALYRQAPGKERELVAAITRGGNTNYADSVKGRFTISRDNAKNTVYLQMNSLKPEDTAVYFCAADRYVQLLGYFFEFDYWGQGSQVTVSS | low polyreactivity
35 | QVQLVESGGGLVHAGGSLRLSCAASGRICGPYVMGWYRQAPGKERELVASITSSGGSPYYADSVKGRFTISRDNAKNTVYLQMNSLKPEDTAVYYWGQGTQVSVSS | low polyreactivity
36 | QVQLVESGGGLVHAGGSLRLSCAASGRIFFRYAMGWYRQSPGKEREFVATITWSGGRTHYADSVKGRFTISRDNAKNTVYLQMNSLKPEDTAVYYCAASYHRYAFDYWGQGTQVTVSS | high polyreactivity
37 | QVQLVESGGGLVHAGGSLRLSCAASGRIFQYYAMGWYRQAPGKERELVAAIDQSGDTTYYADSVKGRFTISRDNAKNTVYLQMNSLKPEDTAVFYCAAGYDWAYHWVPQWMYFWGQGTQVTVSS | low polyreactivity
38 | QVQLVESGGGLVHAGGSLRLSCAASGRIFTPYAMGWYRQAPGKERELVAAISGRGGSTYYADSVKGRFTISRDNAKNTVYLQMNSLKPEDTAVYYCAATYFYVYDYWLDYWGQGTQVTVSS | high polyreactivity
39 | QVQLVESGGGLVHAGGSLRLSCAASGRIFYPYTMGWYRQAPGKERELVAAISIRGTSTYYADSVKGRFTISRDNAKNTVYLQMNSLKPEDTAVYYCAALYVGYDYWGQGTQVTVSS | high polyreactivity
40 | QVQLVESGGGLVHAGGSLRLSCAASGRIYRGNAMGWYRQAPGKERELVARITGNDGDTYYADSVKGRFTISRDNEKNTVYLQMKSLKPEDTAVYYCATDTSSYRSRYYYWGQGTQVTVSS | low polyreactivity
41 | QVQLVESGGGLVHAGGSLRLSCAASGRTFNGNAMGWYRQAPGKERELVAVITGSGGSTYYADSVKGRYTISRDNAKNTVYLQMNSLKPEDTAVYYCNKKVQRRSWYDYWGQGTQVTVSS | low polyreactivity
42 | QVQLVESGGGLVHAGGSLRLSCAASGSIFCTNVMGWYRQAPGKERELVAAISYSDGSTYYADSVKGRFTISRDNAKNTVYLQMNILKPEDSAVYYCADYLYYYWGGYDYWGQGTQVTVSS | low polyreactivity
43 | QVQLVESGGGLVHAGGSLRLSCAASGSIFDFNAMGWYRQVPGKERELVAAITSGGSTNYADSVKGRFTISRDNAKNTVYLQMNSLKPEDTAVYYCAARPARGASQGGYVRPWWYDSWGQGTQVTVSS | low polyreactivity
